Measurements: patent US20240390486A1

T1: peanut (Arachis hypogaea) allergen Ara h 6 (Arachis hypogaea) (UniProt Q647G9)
T1 sequence: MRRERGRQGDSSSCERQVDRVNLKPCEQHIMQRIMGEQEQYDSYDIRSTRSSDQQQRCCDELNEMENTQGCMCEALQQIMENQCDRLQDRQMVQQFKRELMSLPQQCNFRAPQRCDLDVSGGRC


Biological target: T1, peanut (Arachis hypogaea) allergen Ara h 6 (Arachis hypogaea)
Assay: EC50 of IgE mAb on allergen, Table 1; method not stated

| EC50 [ng/mL] | Binder |
| --- | --- |
| 3.2 | human IgE mAb 21C10 (antibody, from a related filing, V domains shown) VH: EVQLVESGGGLVKPGGSLRLSCAASGFILSRSSMSWVRQAPGKGLEWVSYISSTSSHIYYADSLKGRFTISRDNTENSVYLQMSSLRAEDTGVYYCARKTNGAWFLDLWGRGTLVTVSS VL: QSVLTQPPSVSGAPGQRVTISCTGSSSNIGAGSDVHWYQQFPGSAPHVLIYGNNQRPSGVPDRFSASKSGTSASLAITGLQADDEADYYCQSYDYDLSGSWVFGGGTKLTVL |
| 3.8 | human IgE mAb 8F3 (antibody, from a related filing, V domains shown) VH: QLQLQESGPGLVKPSETLSLTCTVSDASIDTPSYFWSWIRQPPGKGLEWIGSIYYTGNKYSNPSLKSRVTMSVDTPKRQFSLRLSSVTAADTAVYYCARYVDYVWLRAFDIWGQGTRVTVSS VL: EIVLTQSPATLSLSPGERATLSCRASPSAGRFLAWYQQRPGQAPRLLIYDASKRATDTPARFSGSGSGTDFNLTIASLEPEDFAVYYCQHRSNWPLTFGGGTKVEIK |

More lines, now with the values behind:

| Binder | EC50 [ng/mL] |
| --- | --- |
| human IgE mAb 15C2 (antibody, from a related filing, V domains shown) VH: QVQLVQSESELKKPGASVKISCKASGYDLTKYAMNWVRQAPGQGLEWMGWINTNTAKPTYAQGFTGRFVFSLDTSVRTIYLEISNLKAEDTAIYYCSRDGSGASWGQGTLVTVSS VL: DIQMTQSPSTLSASVGDRVTITCRASQNIGRWLAWHQQKPGKAPKVLITKASNLESGVPSRFTGSGSGTDFTLTITSLQPDDFATYYCQQYTTYSGTFGQGTRVEIK | 31.5 |
| human IgE mAb 26A5 (antibody, from a related filing, V domains shown) VH: QVQLVQSGSELRKPGASVKVSCKASGYTFTKYGMNWVRQAPGQGLEWMGWINTNTAKPTYAQDFTGRFVFSLDTSVNTAYLEISGLKAEDTAVYYCATDGSEGSWGQGTLVTVSS VL: DIQMTQSPSTLSASVGDRVTITCRASQSIGTWLAWHQQKPGTAPKVLIYKASNLKSGVPSRFSGSGSGTDFTLTISSLQPDDVATYYCQQYNTYSGTFGQGTRVEIK | 10.1 |
| human IgE mAb 1A8 (antibody, from a related filing, V domains shown) VH: QLQLQESGPGLVKPSETLSLTCSVSDDSISTPSYFWTWIRQPPGKGLEWIASIYYTGTTYYNPSLKSRVTLSVDTPKRQFFLRLSSVTAADTAVYYCARYLDYVWLRAFDVWGQGAMVTVSS VL: EIVLTQSPATLSLSPGERATLSCRASPSVGRFLAWYQQKPGQAPRLLIYDASQRATDIPARFSASGSGTDFTLTIDSLEPEDFAIYYCQHRSNWPVTFGGGTRVEIK | 5 |
| human IgE mAb 20M10 (antibody, from a related filing, V domains shown) VH: EVQLVESGGGLVKPGGSLRLSCTVSGFTFNMHSMNWVRQAPGKGLEWVSFISSTSTYIYYPDSVKGRFTVSRDNSKNSLYLQMTSLRAEDTAVYYCVRRGRGGAARALDNWGQGTLVTVSS VL: SYVLPQTPSLSVAPGQTATISCGGNNTGSKSVHWYQQKPGQAPLLVVYDNSDRPSGIPERFSGSNSGNTATLTLSRVEAEDEADYYCQVWDSTIDHVIFGGGTKLTVL | 5.3 |
